PMC6702468
Numbering of substitutions follows the chain as printed. Names and notes keep the numbering of the source.

B1: NsLsi1 (NsNIP2-1) (Nicotiana sylvestris) (protein)
chain: MESERGNSTENKKPNELVSVENPKSNLSFRYILIFFQEHYPPGFLKKVIAEVIATYLLVFVTCGAAAISASDEHKVSRLGASVAGGLIVTVMIYAVGHISGAHMNPAVTFAFAAVRHFPWRQVPPYAAAQLTGATSAAFTLRVLLHPIKHVGTTTPSGSDIQALIMEIVVTFSMMFITSAVATDTKAIGELAGMAVGSAVCITSILAGPVSGGSMNPARTIGPAMASNDYRGIWVYIIGPVCGTLLGAWSYNFIRVTDKPVHAIAPGQSFSFKLRRMKSNDEEQGV
B2: NsLsi1 (NsNIP2-1) (Nicotiana sylvestris; P125F) (protein)
chain: B1 chain with P125F

Substrate: O[Si](O)(O)O
Test: cells, lysate or membranes
Conditions: unit not printed beside Km, taken from [Si]ext in mM

| Protein | Km (3 hr exposure in modified Barth's solution pH 7.4, room temperature, H2O-injected background subtracted, transport, R2 = 0.90, pH 7.4) [mM] | Km (otherwise as WT, paper states a linear equation fits best (R2 = 0.99) and Km lies far above the tested range (up to 2 mM)) [mM] |
| --- | --- | --- |
| B1 | 0.94 ± 0.30 |  |
| B2 |  | 12.83 ± 8.49 |
